Results published in article doi:10.1101/2024.05.01.590489 (bioRxiv, 2024).

B1: mAb1-7 (antibody, V domains shown)
VH: QVQLQESGPGLVKPSETLSLTCTVSGDSIRSYYWSWIRQPPGKGLEWIGHIYYSGSTNYKPSLKSRATILVDTSKNQFSLKLRSVTAADTAVYYCAREMTGVAGRGWDHWGQGTLVTVSS
VL: ALTQPPSASGTPGQRVTISCSGSSSNIGSNTVNWYQQLPGTAPKLLIFINNQRPSGVPDRFSGSKSGTSASLAISGLQSEDEADYYCTTWDGSLNGYVFGTRTEVTVL
B2: mAb3-2 (antibody, V domains shown)
VH: EVQLLESGGGLVQPGGSLRLSCAASGFTFSNYAMSWVRQAPGKGLEWVSLISGSGGSIDYADSVKGRFTISRDNSKNTLYLQMDSLRAEDTAVYYCSKDPIYYDLSGYYAGRIYYFDYWGQGTLVTVSS
VL: EIVMTQSPATLSVSPGDTATLSCRASHSVSRDLAWYQQKPGQAPRLLIYDASTRATGIPARFSGSGSGTEFTLTISSLQSEDFAVYYCQQYINWVTFGPGTKVDIE
B3: mAb2-2 (antibody, V domains shown)
VH: QVQLQESGPGLVKPSVTLSLTCTVSGDSISTYYWSWVRQPPGKGLEWIGYIYYSGNTNYNPSLKSRVTMSVDTSKNQFSLKLNSVTAADTAVYYCARTHHDYGDYRPSYYFDYWGQGTLVTVSS
VL: QSALTQPASVSGSPGQSITISCTGTSSDVGAYDYVSWYQQHPGKAPKLMIYDVSNRPSSGVSNRFSGSKSGNTASLTISGLQAEDEADYYCSSYTSSSTVILGGGTKLTVL
B4: mAb3-3 (antibody, V domains shown)
VH: QVQLQESGPGLVKSSETLSLTCTVSGESISSSSHYWGWIRQPPGKGLEFLGNVYYLGSTYYNPSLESRVTILLDTSKNQFSLKVNSVTVADTAVYYCARHGAGSYSGLFFDYWGQGARVIVSS
VL: DIQMTQSPSFVSASVGDRVNITCRASQGINSWLAWYQQKPGKAPKLLIYSASSLQSGVPSRFSGSGSGTDFTLTISTLQPEDFATYYCQQANSFPYTFGQGTKVD
B5: mAb1-2 (antibody, V domains shown)
VH: EVQLVESGGGLVQPGGSLRLSCAASGFIFSNYWMSWVRQAPGKGPEWVANIKQDGSANHYVDSVKGRFTISRDNAKNSLYLQMNSLRAEDTAVYYCAREAYQDWNYDYWGQGTLVTVSS
VL: DIQMTQSPSSLSASVGDRVTVTCRASEFISRYLNWYQQKPGKAPKVLIYAASSLQSGVPSRFSGSGSGTDFTLTISSLQPEDFATYYCQQSYSTPYTFGQGTKLEIK
B6: mAb1-3 (antibody, V domains shown)
VH: VQLVESGGGVVQPGRSLRLSCAASGFSFSSFVFHWVRQAPGKGLEWVAVISYDGSNKNYADSVKGRFTISRDNSKNTLFLQMNSLSADDTAVYYCARGAICSSTTCYLGDSYYFYGMDVWGQGTTVTVSS
VL: LTQPPSVSGAPGQRVTISCTGSRSNIGAGYDVHWYQQLPGTAPKLLIYGNSNRPSGVPDRFSGSKSGTSASLAITGLQTDDEADYYCQSYDSSLSGSVFGGGTKLTVL
B7: mAb3-1 (antibody, V domains shown)
VH: EVQLLESGGGLVQPGGSLRLSCEASGFTFSRYPMNWVRQAPGKGLEWVSHISASGGTTYYADTVKGRFSISRDNSKNTLYLEMNSLRAEDTAIYFCAKDYPPDEVTMIVVGMPYFDSWGLGTLVSVSS
VL: not shown
B8: mAb1-4 (antibody, V domains shown)
VH: QVQVVESGAEVKKPGASVKVSCKASGYAFTTYYMHWVRQAPGQGLEWMGLINPSGDSITYAQRFQGRVTMTKDTSTSTVYMELSSLRSEDTAIYYCARDPNVAFYYGSGNYYKDNAMDVWGQGTTVTVSS
VL: not shown
B9: mAb2-4 (antibody, V domains shown)
VH: EVQLLESGGGLVHPGGSLRLSCAASGFPFSNFAMSWVRQAPGKGLEWVSTISGSSGSTYYADSVRGRFTISRDYSKNTVYLEMNSLRADDTAIYYCAKDRMITFGEVIVKHYDAFEIWGQGTRVAV
VL: DIQMTQSPSSLSASVGDRVTITCRASQTISTNVNWYQQKPGKAPKLLIYAASSLQSGVPSRFSGSGSGTDFTLTISSLQPEDFATFYCQQSYSAPLTFGEGTKV
B10: mAb2-1 (antibody, V domains shown)
VH: EVQLLESGGGLVQPGKSLRLSCAASGFSFSNYAMSWVRQAPGKGLEWVSGISGSGGSTNYAESVRGRFTISRDNSKNTLYLEMNSLRVEDTAVYYCAKGMSYYDRSGYFWAKYHYGMDVWGQGITVTVSS
VL: not shown
B11: mAb2-5 (antibody, V domains shown)
VH: EVQLVESGGGLVKPGGSPRLSCAASGFNFGSYSMNWVRQAPGKGLEWVSSISSSSSYIYYADSVKGRFTISRDNAKHSLYLQVNSLRAEDTAVYYCARDPTTYGYNSAWDKKGWYFDLWGRGTLLTVS
VL: VLTQPPSVSAAPGQMVTISCSGSSSNIGNDYISWYQQLPGTAPKLLIYDNNERPSGIPDRFSGSKSGTSATLGITGVQTGDEADYYCGTWDSSLSAWVFGEGTKLTVV
B12: mAb1-1 (antibody, V domains shown)
VH: EVQLVESGGGLVKPGGSLRLSCAASGVPFSDAWMNWVRQAPGKGLEWVGRIKSKKDGGTADYAAPVKGRFSISRDDSKKMLYLHMNSLKTEDTAVYYCTTEPSGYCSNGLCYTGNYWGQGTLVTVSS
VL: QPVLTQSSSASASLGSSVKLTCTLSSGHITYIIAWHQQQPGKAPRYLMKLEDSGSYNKGSGVPDRFSGSSSGADRYLTISNLQFEDEADYYCETWDSYTRVFGGGTKLT
B13: mAb2-6 (antibody, V domains shown)
VH: VQLLESGGALVQPGGSLRLSCAASGFSFSNYAMSWVRQAPGKGLEWVSTISASGGTTYFADSVKGHFTISRDNSKNTLYLQMDSLRAEDTAVYYCAKDPNYYDLSGYFLGGYYFDYWGQGTLVTVSS
VL: EIVLTQSPGTLSLSPGERATLSCRASQSVRSSYLAWYQQKPGQAPRLLIYGASSRATDIPDRFSGSGSGTDFTLTISRLEPEDFAVYYCQQYGTSPAFGGGTKV
B14: mAb3-4 (antibody, V domains shown)
VH: AVESGGGLVKPGGPLRLSCAASGFSLSDNYMTWIRQAPGKGLEWVSYISSSGSFINYADSVKGRFTISRDNAKNSLYLQMNSLRAEDTAVYYCARVLSSGGLTTSWRALWYFDVWGRGTLVTVS
VL: TVVTQEPSFSVSPGGTVTLTCGLTSGSVSTSYYPSWYQQTPGQTPRTLIYSTNIRSSGVPDRFSGSILGNKAALTITGAQADDECDYYCVLYMGSGIWVFGGGTKLTVL
B15: mAb2-3 (antibody, V domains shown)
VH: VQLVESGGGLVKPGGSLRLSCATSGFTFSDYYMSWIRQAPGKGLEWVSYISSSGSTIYYADSVKGRFTMSRDNAKNSLFLRMNSLRAEDTAVYYCARDQITVDREVIRAHYYYGMDVWGQGTTVTVS
VL: DIQMTQSPSSVSASVGDRVTITCRASQGINSYLAWYQQKPGKAPKLLIYAASSLESGVPSRFSGSGSGTDFTLTISSLQPEDFATYYCQQANSFPLTFGGGTKVDI
B16: mAb1-5 (antibody, V domains shown)
VH: EVQLVESGGGLVKPGGSLRLSCAASGFMFSSYSMNWVRQAPGKGLEWVSSISRSDSYIDYADSVKGRFTISRDTAMNVLYLQMDSLRAEDTGVYYCARTHVFNMFREVINDDYYGMDVWGQGTTVTVS
VL: ALTQPASVSGSPGQSITISCTGTSSDFGIYNSVSWYQHHPGKAPKLMIFGVSNRPSGVSNRFSGSKSGNTASLSISGLQAEDEADYYCSSFTARSTVVFGGGTKLTVL

Molecular target: AAV9 capsid (adeno-associated virus serotype 9 (AAV9), UniProt Q6JC40)
Experiment: far-Western, overlay or dot blot

Binder | binding result
B1 | binds
B2 | binds
B3 | binds
B4 | binds
B5 | binds
B6 | binds
B7 | binds
B8 | binds
B9 | binds
B10 | binds
B11 | binds
B12 | binds
B13 | binds
B14 | binds
B15 | binds
B16 | binds
